Data from PMC3657558.

Target: CblC, full-length, His-tagged (UniProt Q9Y4U1)
Assay: native gel or EMSA

Sequence of UniProt Q9Y4U1 (Q9Y4U1 whole entry): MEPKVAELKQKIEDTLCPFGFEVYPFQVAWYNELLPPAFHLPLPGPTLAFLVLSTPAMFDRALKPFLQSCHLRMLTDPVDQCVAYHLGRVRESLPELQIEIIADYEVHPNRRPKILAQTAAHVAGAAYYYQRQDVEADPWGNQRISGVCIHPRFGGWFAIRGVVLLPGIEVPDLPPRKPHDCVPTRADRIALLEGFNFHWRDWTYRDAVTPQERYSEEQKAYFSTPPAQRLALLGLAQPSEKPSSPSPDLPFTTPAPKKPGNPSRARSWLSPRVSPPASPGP

stoichiometry N: 1 CblC:CblD
Substance: full-length CblD, N-terminal 6xHis-tagged (from UniProt Q9H3L0 39-296) (natural protein)
